# Measured values taken from US20150344570A1 (published 2015).
# T1: FcγRIIa R extracellular domain with C-terminal His tag (human, UniProt P12318 34-217)
# T1 construct: extracellular domain; also called FcgRIIa R; 2aR; not shown: His tag at the C terminus
# T1 sequence (looked up): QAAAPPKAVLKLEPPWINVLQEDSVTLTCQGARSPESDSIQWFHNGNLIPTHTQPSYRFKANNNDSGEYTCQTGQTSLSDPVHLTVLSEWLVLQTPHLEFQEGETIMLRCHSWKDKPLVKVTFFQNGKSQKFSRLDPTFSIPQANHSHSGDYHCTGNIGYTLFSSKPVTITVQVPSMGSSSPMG
# B1: GpH7-A5/GpH7-B3 variant K326_07I/GpL16-k0 (antibody, human IgG1, kappa)
# heavy 1: not shown
# heavy 2: not shown
# light: DIVMTQSPLSLPVTPGEPASISCQASESLVHSNRNTYLHWYLQKPGQSPQLLIYKVSNRFSGVPDRFSGSGSGTDFTLKISRVEAEDVGVYYCSQNTHVPPTFGQGTKVEIERTVAAPSVFIFPPSDEQLKSGTASVVCLLNNFYPREAKVQWKVDNALQSGNSQESVTEQDSKDSTYSLSSTLTLSKADYEKHKVYACEVTHQGLSSPVTKSFNRGEC
# notes: heterodimerized: alteration in one H chain only; also called He Ab K326_07I
# B2: GpH7-A5/GpH7-B3 variant P238_04F/GpL16-k0 (antibody, human IgG1, kappa)
# heavy 1: not shown
# heavy 2: not shown
# light: B1 light
# notes: heterodimerized: alteration in one H chain only; also called He Ab P238_04F
# B3: GpH7-A5/GpH7-B3 variant S239_08L/GpL16-k0 (antibody, human IgG1, kappa)
# heavy 1: not shown
# heavy 2: not shown
# light: B1 light
# notes: heterodimerized: alteration in one H chain only; also called He Ab S239_08L
# B4: GpH7-A5/GpH7-B3 variant P238_03V/GpL16-k0 (antibody, human IgG1, kappa)
# heavy 1: not shown
# heavy 2: not shown
# light: B1 light
# notes: heterodimerized: alteration in one H chain only; also called He Ab P238_03V
# B5: GpH7-A5/GpH7-B3 variant K326_20W/GpL16-k0 (antibody, human IgG1, kappa)
# heavy 1: not shown
# heavy 2: not shown
# light: B1 light
# notes: heterodimerized: alteration in one H chain only; also called He Ab K326_20W
# B6: GpH7-A5/GpH7-B3 variant K334_10E/GpL16-k0 (antibody, human IgG1, kappa)
# heavy 1: not shown
# heavy 2: not shown
# light: B1 light
# notes: heterodimerized: alteration in one H chain only; also called He Ab K334_10E
# B7: GpH7-A5/GpH7-B3 variant P331_15Y/GpL16-k0 (antibody, human IgG1, kappa)
# heavy 1: not shown
# heavy 2: not shown
# light: B1 light
# notes: heterodimerized: alteration in one H chain only; also called He Ab P331_15Y
# B8: GpH7-A5/GpH7-B3 variant K326_15Y/GpL16-k0 (antibody, human IgG1, kappa)
# heavy 1: not shown
# heavy 2: not shown
# light: B1 light
# notes: heterodimerized: alteration in one H chain only; also called He Ab K326_15Y
# B9: GpH7-A5/GpH7-B3 variant K326_08L/GpL16-k0 (antibody, human IgG1, kappa)
# heavy 1: not shown
# heavy 2: not shown
# light: B1 light
# notes: heterodimerized: alteration in one H chain only; also called He Ab K326_08L
# B10: GpH7-A5/GpH7-B3 variant K334_13S/GpL16-k0 (antibody, human IgG1, kappa)
# heavy 1: not shown
# heavy 2: not shown
# light: B1 light
# notes: heterodimerized: alteration in one H chain only; also called He Ab K334_13S
# B11: GpH7-A5/GpH7-B3 variant L328_14T/GpL16-k0 (antibody, human IgG1, kappa)
# heavy 1: not shown
# heavy 2: not shown
# light: B1 light
# notes: heterodimerized: alteration in one H chain only; also called He Ab L328_14T
# B12: GpH7-A5/GpH7-B3 variant L235_20W/GpL16-k0 (antibody, human IgG1, kappa)
# heavy 1: not shown
# heavy 2: not shown
# light: B1 light
# notes: heterodimerized: alteration in one H chain only; also called He Ab L235_20W
# B13: GpH7-A5/GpH7-B3 variant K334_19Q/GpL16-k0 (antibody, human IgG1, kappa)
# heavy 1: not shown
# heavy 2: not shown
# light: B1 light
# notes: heterodimerized: alteration in one H chain only; also called He Ab K334_19Q
# B14: GpH7-A5/GpH7-B3 variant L328_13S/GpL16-k0 (antibody, human IgG1, kappa)
# heavy 1: not shown
# heavy 2: not shown
# light: B1 light
# notes: heterodimerized: alteration in one H chain only; also called He Ab L328_13S
# B15: GpH7-A5/GpH7-B3 variant P331_20W/GpL16-k0 (antibody, human IgG1, kappa)
# heavy 1: not shown
# heavy 2: not shown
# light: B1 light
# notes: heterodimerized: alteration in one H chain only; also called He Ab P331_20W
# B16: GpH7-A5/GpH7-B3 variant K334_05P/GpL16-k0 (antibody, human IgG1, kappa)
# heavy 1: not shown
# heavy 2: not shown
# light: B1 light
# notes: heterodimerized: alteration in one H chain only; also called He Ab K334_05P
# B17: GpH7-A5/GpH7-B3 variant K334_02A/GpL16-k0 (antibody, human IgG1, kappa)
# heavy 1: not shown
# heavy 2: not shown
# light: B1 light
# notes: heterodimerized: alteration in one H chain only; also called He Ab K334_02A
# B18: GpH7-A5/GpH7-B3 variant P331_16H/GpL16-k0 (antibody, human IgG1, kappa)
# heavy 1: not shown
# heavy 2: not shown
# light: B1 light
# notes: heterodimerized: alteration in one H chain only; also called He Ab P331_16H
# B19: GpH7-A5/GpH7-B3 variant K334_08L/GpL16-k0 (antibody, human IgG1, kappa)
# heavy 1: not shown
# heavy 2: not shown
# light: B1 light
# notes: heterodimerized: alteration in one H chain only; also called He Ab K334_08L
# B20: GpH7-A5/GpH7-B3 variant P271_08L/GpL16-k0 (antibody, human IgG1, kappa)
# heavy 1: not shown
# heavy 2: not shown
# light: B1 light
# notes: heterodimerized: alteration in one H chain only; also called He Ab P271_08L
# B21: GpH7-A5/GpH7-B3 variant P331_02A/GpL16-k0 (antibody, human IgG1, kappa)
# heavy 1: not shown
# heavy 2: not shown
# light: B1 light
# notes: heterodimerized: alteration in one H chain only; also called He Ab P331_02A
# B22: GpH7-A5/GpH7-B3 variant P331_04F/GpL16-k0 (antibody, human IgG1, kappa)
# heavy 1: not shown
# heavy 2: not shown
# light: B1 light
# notes: heterodimerized: alteration in one H chain only; also called He Ab P331_04F
# B23: GpH7-A5/GpH7-B3 variant K334_04F/GpL16-k0 (antibody, human IgG1, kappa)
# heavy 1: not shown
# heavy 2: not shown
# light: B1 light
# notes: heterodimerized: alteration in one H chain only; also called He Ab K334_04F
# Molecular target: T1, FcγRIIa R extracellular domain with …
# Assay: SPR (Biacore), relative FcγRIIa R binding, GpH7-A5/GpH7-B3/GpL16-k0 = 100
row,He/Con_2aR,Binder
1,147 % of control,B1
2,174 % of control,B2
3,122 % of control,B3
4,120 % of control,B4
5,131 % of control,B5
6,106 % of control,B6
7,112 % of control,B7
8,136 % of control,B8
9,137 % of control,B9
10,109 % of control,B10
11,119 % of control,B11
12,131 % of control,B12
13,109 % of control,B13
14,117 % of control,B14
15,110 % of control,B15
16,103 % of control,B16
17,105 % of control,B17
18,114 % of control,B18
19,106 % of control,B19
20,104 % of control,B20
21,106 % of control,B21
22,111 % of control,B22
23,110 % of control,B23
